Measured values as given in patent US20140017242A1, “ANTI-BRADYKININ B2 RECEPTOR (BKB2R) MONOCLONAL ANTIBODY” (Diamedica, Inc., priority 2010, published 2014).

How the values were obtained:
ZDF fa/fa rats = test: 21-day ZDF fa/fa study: fasting blood glucose; format: in vivo, rat; conditions: for fasting blood glucose level: day 21
Method: Animals. Male ZDF fa/fa rats were obtained from CRL (Kingston, N.Y.). Upon arrival, rats were seven weeks of age. The rats were housed individually per cage in a room with a photo cycle of 12 hours of light and 12 hours of dark and an ambient temperature of 70-72° F. and fed on regular rodent diet and water ad libitum. At the age of eleven weeks, rats were divided into six groups (Table 5) of eight rats per group based on fasting blood glucose levels. A sub-group of four rats per group was maintained in parallel to the main groups and was dosed similarly for twenty-one days for a hyperinsulinemic-euglycemic clamp study. […]
An oral glucose tolerance test (OGTT) was performed on Day 0, 7, 14 and 21 for each group of the study. Plasma samples were collected at each time point during OGTT to also measure insulin levels. Body weight, food and water intake were measured twice a week. Blood pressure and heart rates were monitored on Day 0, 7, 14 and 21 using a non-invasive tail cuff method (with five readings per rat taken and then averaged). Fasting serum samples were collected on Day 0, 7, 14 and 21 before OGTT for determination of triglyceride and total cholesterol level. Urine samples were collected on Day 7 and 14 for the determination of glycosuria. Glycated (Glycosylated) hemoglobin (HbA1c) was measured at the end of the study. Assay kits for these studies were as presented in Table 6, and were used according to the suppliers' instructions.
Fasting blood glucose levels were measured on Day 0, 7, 14 and 21.
The mean change in fasting blood glucose (mg/dL), serum cholesterol (mg/dL) and systolic blood pressure (mm Hg) from baseline (Day 0) to Day 21 was compared between the high-dose (5F12G1, 0.2 mg/kg) and negative control (MG2b-57, 0.2 mg/kg) groups using an analysis of covariance to adjust for baseline levels. The mean HbA1c percentage in high-dose (5F12G1, 0.2 mg/kg) rats was compared to the mean HbA1c percentage for negative control (MG2b-57, 0.2 mg/kg) rats using an unequal-variance, independent two-sample t-test. A significance level of a=0.05 was used for all tests, and all analyses were conducted using SAS statistical software (vs. 9.2, Cary, N.C., U.S.A.).

RS-4;11 = test: MTT Cell Proliferation Assay, RS-4;11; format: cell-based, human; conditions: 120 hours of exposure
Description: This Example describes characterization of the cytotoxic activity of herein described anti-BKB2R monoclonal antibodies against a panel of cancer cell lines. BxPC-3 is a human adenocarcinoma cell line originally isolated from the pancreas (pancreatic cancer) (ATCC # CRL-1687; Tan et al., Cancer Invest. 4: 15-23, 1986. PubMed: 3754176). MV-4-11 is a human biphenotypic B myelomonocytic leukemia (mixed-lineage leukemia, MLL-AF4) cell line originally isolated from the peripheral blood (ATCC # CRL-959; Lange et al., Blood 70: 192-199, 1987. PubMed: 3496132). Hep G2 is a human hepatocellular carcinoma cell line isolated from the liver (liver cancer) (ATCC # HB-8065; Aden et al., Nature 282: 615-616, 1979. PubMed: 233137). RS4;11 is a human acute lymphoblastic leukemia (mixed-lineage leukemia, MLL-AF4) cell line isolated from the bone marrow (ATTC # CRL-1873) Stong et al., Blood 65: 21-31, 1985. PubMed: 3917311). HT-29 is a human colorectal adenocarcinoma (ATTC # HTB-38) cell line isolated from the colon (colon cancer). Fogh et al., J. Natl. Cancer Inst. 58: 209-214, 1977. PubMed: 833871). NUGC-4 is a human stomach carcinoma isolated from the stomach paragastiric lymph node (JCRB # JCRB0834; Akiyama et al., Jpn. J. Surg., 18: 438-446, 1988). […]
The anti-proliferative activity of test compounds against the indicated cell lines was evaluated in vitro using the ATCC's MTT Cell Proliferation Assay (Catalog No. 30-1010K). After the 120 hour incubation with drug (e.g., anti-BKB2R mAb or cisplatin), cell proliferation was measured by addition of MTT reagent to each well and incubation for an additional 4 hrs. […] Optical absorbance (570 nm) of the test wells was measured and then quantitated relative to control wells that received no drug. Results were expressed as percent inhibition versus compound concentration and graphed, as shown in FIGS. 19-25, for cell lines BxPC-3, MV-4;11, HepG2, RS-4;11, HT-29, NUGC-4, and PC-3, respectively.

B1: 5F12G1: murine monoclonal anti-BKB2R antibody (IgG2b,κ), VH comprising SEQ ID NO:1, VL comprising SEQ ID NO:2 (antibody, listed as Mus musculus, V domains shown)
VH: EVKLEESGGGLVQPGGSMKLSCVVSGFTFSDYWMSWVRHSPEMGLEWVAEIRLKSDNYATHYAESVKGRFTISRDDSKSRLYLQINSLRGEDTGIYYCTRDYYAMEYWGQGTSVTVSS
VL: DVVMTQTPLSLPVSLGDQASISCRSSQTIVHSNGKTYLEWYLQKPGQSPKLLIYKVSNRFSGVPDRFSGSGSGTEFTLKISRVETEDLGVYYCFQASHVPYTFGGGTKLEIK
increase of fasting blood glucose from baseline (ZDF fa/fa rats; 0.2 mg/kg s.c. every 3 days, Day 0 to Day 21): 33.1 ± 19.7 mg/dL | fasting blood glucose level (ZDF fa/fa rats; 0.2 mg/kg s.c. every 3 days, baseline 117.6+/−14.2 (5F12G1), 116.5+/−25.8 (MG2b-57)): approximately 150.8+/−56.5 mg/dl | fasting blood glucose level (ZDF fa/fa rats; second of three values given respectively (0.04 mg/kg s.c. every 3 days)): ~163 ± 21 mg/dL | fasting blood glucose level (ZDF fa/fa rats; third of three values given respectively (0.008 mg/kg s.c. every 3 days)): ~190 ± 40 mg/dL | EC 50 Values (ng/ml) RS-4;11 (RS-4;11): 15000 ng/mL
